Source: paper PMC6748613
Values belong to the substance of their own block, whether it stands above or below them.

Columns and labels:
Experiment in all cases: AUC
[1] = target: bH1 Fab variant W^H33-D^H98-G^H99-S^L30b
[2] = target: bH1 Fab variant Y^H33-M^H98-G^H99-S^L30b
[3] = target: bH1 Fab variant Y^H33-F^H98-G^H99-S^L30b
[4] = target: bH1 Fab variant W^H33-W^H98-D^H99-R^L30b
[5] = target: bH1 Fab variant Y^H33-W^H98-G^H99-S^L30b
[6] = target: bH1 Fab variant W^H33-M^H98-D^H99-R^L30b
[7] = target: bH1 Fab variant W^H33-W^H98-G^H99-S^L30b
[8] = target: bH1 Fab variant Y^H33-D^H98-G^H99-R^L30b
[9] = target: bH1 Fab variant Y^H33-M^H98-M^H99-S^L30b

Kd [1]: 1470 mM
dimer % at 1 mg/mL [1]: 1.2%
Substance: bH1 Fab variant W^H33-D^H98-G^H99-S^L30b

Kd [2]: 179 mM
dimer % at 1 mg/mL [2]: 1.4%
Substance: bH1 Fab variant Y^H33-M^H98-G^H99-S^L30b

Kd [3]: 1.29 mM
dimer % at 1 mg/mL [3]: 1%
Substance: bH1 Fab variant Y^H33-F^H98-G^H99-S^L30b

Kd [4]: 1.33 mM
dimer % at 1 mg/mL [4]: 1.2%
Substance: bH1 Fab variant W^H33-W^H98-D^H99-R^L30b

Kd [5]: 5.73 mM
dimer % at 1 mg/mL [5]: 2.8%
Substance: bH1 Fab variant Y^H33-W^H98-G^H99-S^L30b

Kd [6]: 3.98 mM
Substance: bH1 Fab variant W^H33-M^H98-D^H99-R^L30b

Kd [7]: 2.68 mM
dimer % at 1 mg/mL [7]: 1.4%
Substance: bH1 Fab variant W^H33-W^H98-G^H99-S^L30b

Kd [8]: 8.94 mM
Substance: bH1 Fab variant Y^H33-D^H98-G^H99-R^L30b

Kd [9]: 19.9 mM
Substance: bH1 Fab variant Y^H33-M^H98-M^H99-S^L30b
